This experiment addresses T1, polyhistidine (His)-tagged recombinant full-length CCN2 (UniProt P29279 27-349).
T1 sequence (looked up): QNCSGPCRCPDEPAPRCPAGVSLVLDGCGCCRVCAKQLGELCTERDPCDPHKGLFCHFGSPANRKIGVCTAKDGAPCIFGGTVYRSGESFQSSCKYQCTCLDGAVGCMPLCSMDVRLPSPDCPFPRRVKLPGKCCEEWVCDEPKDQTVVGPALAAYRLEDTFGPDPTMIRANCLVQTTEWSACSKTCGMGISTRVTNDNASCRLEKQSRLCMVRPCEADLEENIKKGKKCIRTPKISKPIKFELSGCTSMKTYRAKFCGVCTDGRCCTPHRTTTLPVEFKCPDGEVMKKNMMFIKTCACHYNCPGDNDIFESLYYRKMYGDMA
Kind of experiment: SPR. A general note: Surface plasmon resonance follows binding to a sensor surface in real time, without labels.

B1: recombinant bone morphogenetic protein (BMP)-2 (ligand, UniProt P12643 283-396, looked up)
chain: QAKHKQRKRLKSSCKRHPLYVDFSDVGWNDWIVAPPGYHAFYCHGECPFPLADHLNSTNHAIVQTLVNSVNSKIPKACCVPTELSAISMLYLDENEKVVLKNYQDMVVEGCGCR
For orientation: Kd means the constant that tells how readily two partners part at equilibrium. As to B1, the Kd was determined as 0.77 nM.

The values above are taken from PMC2760593 (Journal of biochemistry, 2008).
